Assay results as given in paper PMC8154891, “TAPBPR promotes antigen loading on MHC-I molecules using a peptide trap” (Nature Communications, 2021).
Several values for one entry are separate records, joined by “and”; a condition that tells them apart may be missing. Identical values can stand only once.

Key:
[1] = target: TAMRA-TAX9 in complex with HLA-A*02:01 (hβ2m) (human | HTLV-1); assay: fluorescence polarisation
[2] = target: peptide-deficient (empty) HLA-A*02:01/hβ2m (human); assay: ITC
HLA-A*02:01/hβ2m = conditions: DSF, 7 μM HLA-A*02:01/hβ2m in complex with the peptide, 10× SYPRO orange, 1 °C/min, pH 7.2; n = 3 technical replicates
[3] = target: TAPBPR^WT (TAP-binding protein related, wild-type, luminal domain) (human); assay: ITC
[4] = target: TAPBPR^ΔG24-R36 (luminal domain, deletion of residues G24-R36) (human); assay: ITC
[5] = target: T1, HLA-A*02:01/hβ2m (empty MHC-I released from TAPBPR^ΔG24-R36 complex) (Homo sapiens, UniProt P04439, D140Y/D185E/D98H/E176V/E277Q/G131W/G231S/I119V/I121R/I166T/I218V/L300P/L318F/N151K/N90K/P208A/P217A/Q86G/Q94H/R138H/R169H/T345S); assay: ITC, KD2,app: peptide titrated into peptide-deficient HLA-A*02:01/hβ2m/TAPBPR^ΔG24-R36 complex, no excess TAPBPR; format: binding; conditions: ~50–100 μM peptide into ~15 μM peptide-deficient complex, pH 7.2, one-site fit, one technical replicate, error from fit
T1 construct: DNA plasmid constructs encoding the luminal domain of human HLA-A*02:01 (heavy chain); made in house

[6] = target: T2, peptide-deficient HLA-A*02:01/hβ2m/TAPBPR^ΔG24-R36 complex (Homo sapiens, UniProt P04439, D140Y/D185E/D98H/E176V/E277Q/G131W/G231S/I119V/I121R/I166T/I218V/L300P/L318F/N151K/N90K/P208A/P217A/Q86G/Q94H/R138H/R169H/T345S); assay: ITC, KD4: peptide titrated into empty HLA-A*02:01/TAPBPR^ΔG24-R36 complex with excess TAPBPR; format: binding; conditions: ~150–200 μM peptide into ~15 μM peptide-deficient complex and 50 μM excess TAPBPR, pH 7.2, one-site fit, error from fit
T2 construct: DNA plasmid constructs encoding the luminal domain of human HLA-A*02:01 (heavy chain); made in house

[7] = target: T3, HLA-A*02:01/hβ2m (empty MHC-I released from TAPBPR^WT complex) (Homo sapiens, UniProt P04439, D140Y/D185E/D98H/E176V/E277Q/G131W/G231S/I119V/I121R/I166T/I218V/L300P/L318F/N151K/N90K/P208A/P217A/Q86G/Q94H/R138H/R169H/T345S); assay: ITC, KD2,app: peptide titrated into peptide-deficient HLA-A*02:01/hβ2m/TAPBPR^WT complex, no excess TAPBPR; format: binding; conditions: ~50–100 μM peptide into ~15 μM peptide-deficient complex, 50 mM NaCl, 20 mM sodium phosphate pH 7.2, one-site fit, one technical replicate, error from fit
T3 construct: DNA plasmid constructs encoding the luminal domain of human HLA-A*02:01 (heavy chain); made in house; TAPBPR: Drosophila S2 cells

[8] = target: T4, peptide-deficient HLA-A*02:01/hβ2m/TAPBPR^WT complex (Homo sapiens, UniProt P04439, D140Y/D185E/D98H/E176V/E277Q/G131W/G231S/I119V/I121R/I166T/I218V/L300P/L318F/N151K/N90K/P208A/P217A/Q86G/Q94H/R138H/R169H/T345S); assay: ITC, KD4: peptide titrated into empty HLA-A*02:01/TAPBPR^WT complex with excess TAPBPR; format: binding; conditions: ~150–200 μM peptide into ~15 μM peptide-deficient complex and 50 μM excess TAPBPR, pH 7.2, one-site fit, error from fit
T4 construct: DNA plasmid constructs encoding the luminal domain of human HLA-A*02:01 (heavy chain); made in house; TAPBPR: Drosophila S2 cells

HLA-A*01:01 = HLA-A*01:01 (Homo sapiens, UniProt P04439, A114D/A174V/A182V/D101N/D185E/E176A/E190D/L180R/Q94H/R68K/S129P/T187R/V100A/V91M/W191G); conditions: yeast-displayed TAPBPR, flow cytometry
TAX8/HLA-A*02:01/hβ2m = assay: FP, KD3: TAPBPR titrated into TAMRA-TAX9 and TAX8/HLA-A*02:01/hβ2m; format: binding, human; conditions: TAPBPR (0–80 μM) titrated into 1 nM TAMRA-TAX9 and 50 nM TAX8/HLA-A*02:01/hβ2m; 25 °C, pH 7.2, 0.05% tween-20; read-out: KD3 from FP
MHC-I = conditions: read-out: estimated KD of the MHC-I/TAPBPR interaction; SPR experiments of an analogous system; cited from earlier work

For “TAPBPR^ΔG24-R36 (luminal domain, deletion of residues G24-R36) (domain or fragment)”, the Kd [1] was 2000 nM and the Kd [2] was 13.9 nM and 11.1 nM and 14.2 nM.

For “TAPBPR^WT (TAP-binding protein related, wild-type, luminal domain) (domain or fragment)”, the Kd [1] was 2000 nM and the Kd [2] was 37.4 nM and 30.6 nM and 38.8 nM.

With LLFGGYPVYV [TAX10] the “Tm of pMHC-I complex” value (HLA-A*02:01/hβ2m) was 58.9 °C.

For LLFGGGGYPVYV [TAX12], the “Tm of pMHC-I complex” value (HLA-A*02:01/hβ2m) was 53.2 °C.

With “TAX9/HLA-A*02:01/hβ2m (from UniProt P61769 21-119) (peptide-MHC)” the Kd [3] was 1900 nM, the stoichiometry N [3] was 1.02 and the Kd [4] was 1800 nM.

With “TAPBPR^ΔALAS (luminal domain, deletion of residues A29-S32) (domain or fragment)” the Kd [1] was 2000 nM.

In the case of `CC[C@H](C)[C@H](NC(=O)[C@H](CCC(=O)O)NC(=O)[C@H](CC(C)C)NC(=O)[C@H](CC(C)C)NC(=O)[C@@H](N)CCCCN)C(=O)N1CCC[C@H]1C(=O)N[C@@H](CC(=O)O)C(=O)N1CCC[C@H]1C(=O)N[C@@H](CC(=O)O)C(=O)N[C@@H](CCCCN)C(=O)N[C@@H](CC(N)=O)C(=O)N[C@@H](Cc1c[nH]c2ccccc12)C(=O)N[C@@H](C)C(=O)N[C@H](C(=O)N[C@@H](CC(C)C)C(=O)O)[C@@H](C)O` [KLL15], the Kd [5] is reported as 334 ± 20 nM, the Kd [6] is reported as 49500 ± 8600 nM and the Kd [7] is reported as 383 ± 22 nM. It also gave a Kd [8] of 21600 ± 7000 nM.

B1: TAPBPR WT: wild-type human TAPBPR; luminal domain from S2 cells in vitro, FLAG-tagged full length in Expi293F cells (protein, UniProt Q9BX59 19-468, looked up)
Tapasin-related protein: AETKPHPAEGQWRAVDVVLDCFLAKDGAHRGALASSEDRARASLVLKQVPVLDDGSLEDFTDFQGGTLAQDDPPIIFEASVDLVQIPQAEALLHADCSGKEVTCEISRYFLQMTETTVKTAAWFMANMQVSGGGPSISLVMKTPRVTKNEALWHPTLNLPLSPQGTVRTAVEFQVMTQTQSLSFLLGSSASLDCGFSMAPGLDLISVEWRLQHKGRGQLVYSWTAGQGQAVRKGATLEPAQLGMARDASLTLPGLTIQDEGTYICQITTSLYRAQQIIQLNIQASPKVRLSLANEALLPTLICDIAGYYPLDVVVTWTREELGGSPAQVSGASFSSLRQSVAGTYSISSSLTAEPGSAGATYTCQVTHISLEEPLGASTQVVPPERRTALGVIFASSLFLLALMFLGLQRRQAPTGLGLLQAERWETTSCADTQSSHLHEDRTARVSQPS
modifications: FLAG tag
In the case of B1, the “binding of HLA-A*01:01 tetramers” value (HLA-A*01:01) is given as “No binding”, the Kd (TAX8/HLA-A*02:01/hβ2m) is given as roughly 2000 nM and the Kd (MHC-I) is given as roughly 190 nM.
